Read-outs that look alike come from different tables or passages of the source.
Assays:
Test in all cases: cell-based or functional assay
[1] = target: SARS-CoV-2 Alpha (B.1.1.7) spike (S) protein (SARS-CoV-2) (UniProt P0DTC2)
[2] = target: SARS-CoV-2 Alpha spike (S) protein (SARS-CoV-2) (UniProt P0DTC2)
[3] = target: SARS-CoV-2 Beta (B.1.351) spike (S) protein (SARS-CoV-2) (UniProt P0DTC2)
[4] = target: SARS-CoV-2 Beta spike (S) protein (SARS-CoV-2) (UniProt P0DTC2)
[5] = target: SARS-CoV-2 Delta spike (S) protein (SARS-CoV-2) (UniProt P0DTC2)
[6] = target: SARS-CoV-2 Gamma (P.1) spike (S) protein (SARS-CoV-2) (UniProt P0DTC2)
[7] = target: SARS-CoV-2 Gamma spike (S) protein (SARS-CoV-2) (UniProt P0DTC2)
[8] = target: SARS-CoV-2 Omicron (BA.1) spike (S) protein, live virus isolate (SARS-CoV-2) (UniProt P0DTC2)
[9] = target: SARS-CoV-2 Omicron BA.1 spike (S) protein of the live isolate (SARS-CoV-2) (UniProt P0DTC2)
[10] = target: SARS-CoV-2 Omicron BA.1 spike (S) protein of the pseudovirus (SARS-CoV-2) (UniProt P0DTC2)
[11] = target: SARS-CoV-2 Omicron BA.1 spike (S) protein, pseudovirus construct (SARS-CoV-2) (UniProt P0DTC2)
[12] = target: SARS-CoV-2 Omicron BA.1.1 spike (S) protein (SARS-CoV-2) (UniProt P0DTC2)
[13] = target: SARS-CoV-2 Omicron BA.1.1 spike (S) protein, pseudovirus construct (SARS-CoV-2) (UniProt P0DTC2)
[14] = target: SARS-CoV-2 Omicron BA.2 spike (S) protein (SARS-CoV-2) (UniProt P0DTC2)
[15] = target: SARS-CoV-2 Omicron BA.2 spike (S) protein, pseudovirus construct (SARS-CoV-2) (UniProt P0DTC2)
[16] = target: SARS-CoV-2 Omicron BA.3 spike (S) protein (SARS-CoV-2) (UniProt P0DTC2)
[17] = target: SARS-CoV-2 Omicron BA.3 spike (S) protein, pseudovirus construct (SARS-CoV-2) (UniProt P0DTC2)
[18] = target: SARS-CoV-2 Omicron BA.4/5 spike (S) protein (SARS-CoV-2) (UniProt P0DTC2)
[19] = target: SARS-CoV-2 Victoria spike (S) protein (SARS-CoV-2) (UniProt P0DTC2)
[20] = target: SARS-CoV-2 spike (S) protein, Omicron BA.1 (SARS-CoV-2) (UniProt P0DTC2)
[21] = target: SARS-CoV-2 spike (S) protein, Omicron BA.1.1 (SARS-CoV-2) (UniProt P0DTC2)
[22] = target: SARS-CoV-2 spike (S) protein, Omicron BA.2 (SARS-CoV-2) (UniProt P0DTC2)
[23] = target: SARS-CoV-2 spike (S) protein, Omicron BA.2.75 (SARS-CoV-2) (UniProt P0DTC2)
[24] = target: SARS-CoV-2 spike (S) protein, Omicron BA.3 (SARS-CoV-2) (UniProt P0DTC2)
[25] = target: SARS-CoV-2 spike (S) protein, Omicron BA.4/5 (SARS-CoV-2) (UniProt P0DTC2)
[26] = target: SARS-CoV-2 spike (S) protein, Victoria strain (SARS-CoV-2) (UniProt P0DTC2)
[27] = target: SARS-CoV-2 spike (S) protein, Omicron BA.2 (SARS-CoV-2) (UniProt P0DTC2); remark: listed apart in the source
[28] = target: SARS-CoV-2 spike (S) protein, Omicron BA.2.75 (SARS-CoV-2) (UniProt P0DTC2); remark: listed apart in the source
[29] = target: SARS-CoV-2 spike (S) protein, Omicron BA.2 (SARS-CoV-2) (UniProt P0DTC2); remark: listed apart in the source
[30] = target: SARS-CoV-2 spike (S) protein, Omicron BA.2.3.20 (SARS-CoV-2) (UniProt P0DTC2)
[31] = target: SARS-CoV-2 spike (S) protein, Omicron BA.2.75 (SARS-CoV-2) (UniProt P0DTC2); remark: listed apart in the source
[32] = target: SARS-CoV-2 spike (S) protein, Omicron BA.2.75.2 (SARS-CoV-2) (UniProt P0DTC2)
[33] = target: SARS-CoV-2 spike (S) protein, Omicron BA.4.6 (SARS-CoV-2) (UniProt P0DTC2)
[34] = target: SARS-CoV-2 spike (S) protein, Omicron BA.4/5 (SARS-CoV-2) (UniProt P0DTC2); remark: listed apart in the source
[35] = target: SARS-CoV-2 spike (S) protein, Omicron BJ.1 (SARS-CoV-2) (UniProt P0DTC2)
[36] = target: SARS-CoV-2 spike (S) protein, Victoria strain (SARS-CoV-2) (UniProt P0DTC2); remark: listed apart in the source
[37] = target: SARS-CoV-2 spike (S) protein, Omicron BA.4.6 (SARS-CoV-2) (UniProt P0DTC2); remark: listed apart in the source
[38] = target: SARS-CoV-2 spike (S) protein, Omicron BA.2.75 (SARS-CoV-2) (UniProt P0DTC2); remark: listed apart in the source

With Omi-03 (antibody) the Authentic virus-IC50 [1] was 0.012 µg/mL, the IC50, authentic virus neutralization [2] was 0.012 µg/mL and the Authentic virus-IC50 [3] was 0.009 µg/mL. For the same substance, the IC50, authentic virus neutralization [4] was 0.009 µg/mL, the Authentic virus-IC50 [5] was 0.004 µg/mL and the IC50, authentic virus neutralization [5] was 0.004 µg/mL. The Authentic virus-IC50 [6] was 0.004 µg/mL, the IC50, authentic virus neutralization [7] was 0.004 µg/mL and the Authentic virus-IC50 [8] was 0.009 µg/mL. The IC50, authentic virus neutralization [9] was 0.009 µg/mL, the IC50, pseudovirus neutralization [10] was 0.005 µg/mL and the Pseudovirus - IC50 [11] was 0.005 µg/mL. For the same substance, the IC50, authentic virus neutralization [12] was 0.015 µg/mL, the IC50, pseudovirus neutralization [12] was 0.003 µg/mL and the Pseudovirus - IC50 [13] was 0.003 µg/mL. It also gave an IC50, authentic virus neutralization [14] of 0.028 µg/mL, an IC50, pseudovirus neutralization [14] of 0.008 µg/mL and a Pseudovirus - IC50 [15] of 0.008 µg/mL. It also gave an IC50, pseudovirus neutralization [16] of 0.022 µg/mL, a Pseudovirus - IC50 [17] of 0.022 µg/mL and an IC50, pseudovirus neutralization [18] of 0.017 µg/mL. It also gave an Authentic virus-IC50 [19] of 0.007 µg/mL, an IC50, authentic virus neutralization [19] of 0.007 µg/mL and an IC50, pseudovirus neutralization [19] of 0.003 µg/mL. The Pseudovirus - IC50 [19] was 0.003 µg/mL, the pseudovirus neutralisation IC50 [20] was 0.005 µg/mL and the pseudovirus neutralisation IC50 [21] was 0.003 µg/mL. The pseudovirus neutralisation IC50 [22] was 0.008 µg/mL, the pseudovirus neutralisation IC50 [23] was 0.017 µg/mL and the pseudovirus neutralisation IC50 [24] was 0.022 µg/mL. For the same substance, the pseudovirus neutralisation IC50 [25] was 0.017 µg/mL, the pseudovirus neutralisation IC50 [26] was 0.003 µg/mL and the pseudovirus neutralisation IC50 [27] was 0.008 µg/mL. The pseudovirus neutralisation IC50 [28] was 0.017 µg/mL, the IC50, pseudoviral neutralization [29] was 0.008 µg/mL and the IC50, pseudoviral neutralization [30] was 0.02 µg/mL. For the same substance, the IC50, pseudoviral neutralization [31] was 0.017 µg/mL, the IC50, pseudoviral neutralization [32] was 0.546 µg/mL and the IC50, pseudoviral neutralization [33] was 0.006 µg/mL. The IC50, pseudoviral neutralization [34] was 0.017 µg/mL, the IC50, pseudoviral neutralization [35] was 0.014 µg/mL and the IC50, pseudoviral neutralization [36] was 0.003 µg/mL.

In the case of REGN10933 (antibody), the IC50, authentic virus neutralization [2] is reported as 0.014 µg/mL, the IC50, authentic virus neutralization [4] is reported as 3.28 µg/mL and the IC50, authentic virus neutralization [5] is reported as 0.003 µg/mL. It also gave an IC50, authentic virus neutralization [7] of 6.18 µg/mL, an IC50, authentic virus neutralization [9] of over 10 µg/mL and an IC50, authentic virus neutralization [12] of over 10 µg/mL. It also gave an IC50, authentic virus neutralization [14] of over 10 µg/mL, an IC50, authentic virus neutralization [19] of 0.004 µg/mL and an IC50, pseudoviral neutralization [20] of over 10 µg/mL. It also gave a pseudovirus neutralisation IC50 [20] of over 10 µg/mL, an IC50, pseudoviral neutralization [21] of over 10 µg/mL and a pseudovirus neutralisation IC50 [21] of over 10 µg/mL. It also gave an IC50, pseudoviral neutralization [22] of over 10 µg/mL, a pseudovirus neutralisation IC50 [22] of over 10 µg/mL and an IC50, pseudoviral neutralization [24] of over 10 µg/mL. It also gave a pseudovirus neutralisation IC50 [24] of over 10 µg/mL, an IC50, pseudoviral neutralization [37] of over 10 µg/mL and an IC50, pseudoviral neutralization [25] of over 10 µg/mL. The pseudovirus neutralisation IC50 [25] was over 10 µg/mL, the IC50, pseudoviral neutralization [26] was 0.001 µg/mL and the pseudovirus neutralisation IC50 [26] was 0.001 µg/mL. For the same substance, the pseudovirus neutralisation IC50 [38] was over 10 µg/mL, the IC50, pseudoviral neutralization [29] was over 10 µg/mL and the IC50, pseudoviral neutralization [30] was 8.62 µg/mL. The IC50, pseudoviral neutralization [31] was over 10 µg/mL, the IC50, pseudoviral neutralization [32] was over 10 µg/mL and the IC50, pseudoviral neutralization [33] was over 10 µg/mL. The IC50, pseudoviral neutralization [34] was over 10 µg/mL, the IC50, pseudoviral neutralization [35] was over 10 µg/mL and the IC50, pseudoviral neutralization [36] was 0.001 µg/mL.

In the case of REGN10987 (antibody), the IC50, authentic virus neutralization [2] is reported as 0.028 µg/mL, the IC50, authentic virus neutralization [4] is reported as 0.007 µg/mL and the IC50, authentic virus neutralization [5] is reported as 0.017 µg/mL. For the same substance, the IC50, authentic virus neutralization [7] was 0.013 µg/mL, the IC50, authentic virus neutralization [9] was over 10 µg/mL and the IC50, authentic virus neutralization [12] was over 10 µg/mL. It also gave an IC50, authentic virus neutralization [14] of 1.85 µg/mL, an IC50, authentic virus neutralization [19] of 0.032 µg/mL and an IC50, pseudoviral neutralization [20] of over 10 µg/mL. It also gave a pseudovirus neutralisation IC50 [20] of over 10 µg/mL, an IC50, pseudoviral neutralization [21] of over 10 µg/mL and a pseudovirus neutralisation IC50 [21] of over 10 µg/mL. The IC50, pseudoviral neutralization [22] was 0.616 µg/mL, the pseudovirus neutralisation IC50 [22] was 0.616 µg/mL and the IC50, pseudoviral neutralization [24] was over 10 µg/mL. It also gave a pseudovirus neutralisation IC50 [24] of over 10 µg/mL, an IC50, pseudoviral neutralization [37] of over 10 µg/mL and an IC50, pseudoviral neutralization [25] of over 10 µg/mL. The pseudovirus neutralisation IC50 [25] was over 10 µg/mL, the IC50, pseudoviral neutralization [26] was 0.002 µg/mL and the pseudovirus neutralisation IC50 [26] was 0.002 µg/mL. It also gave a pseudovirus neutralisation IC50 [38] of over 10 µg/mL, an IC50, pseudoviral neutralization [29] of 0.615 µg/mL and an IC50, pseudoviral neutralization [30] of over 10 µg/mL. The IC50, pseudoviral neutralization [31] was over 10 µg/mL, the IC50, pseudoviral neutralization [32] was over 10 µg/mL and the IC50, pseudoviral neutralization [33] was over 10 µg/mL. It also gave an IC50, pseudoviral neutralization [34] of over 10 µg/mL, an IC50, pseudoviral neutralization [35] of over 10 µg/mL and an IC50, pseudoviral neutralization [36] of 0.002 µg/mL.

Reference: patent US20250154231A1
